Experimental data published in US20140213772A1 (AbbVie / Abbott, published 2014).

B1: AB274 (antibody, V domains shown)
VH: EVQLVQSGAEVKKPGSSVKVSCKASGGSFGGYGIGWVRQAPGQGLEWMGGITPFFGFADYAQKFQGRVTITADESTTTAYMELSGLTSDDTAVYYCARDPNEFWNGYYSTHDFDSWGQGTTVTVSS
VL: EIVLTQSPDFQSVTPKEKVTITCRASQDIGSELHWYQQKPDQPPKLLIKYASHSTSGVPSRFSGSGSGTDFTLTINGLEAEDAGTYYCHQTDSLPYTFGPGTKVDIKR
B2: AB441 (antibody, V domains shown)
VH: EVQLVQSGAEVKKPGASVKVSCKASGYTFANYGIIWVRQAPGQGLEWMGWINTYTGKPTYAQKFQGRVTMTTDTSTSTAYMELSSLRSEDTAVYYCARKLFTTMDVTDNAMDYWGQGTTVTVSS
VL: DIQMTQSPSSLSASVGDRVTITCRASQDISQYLNWYQQKPGKAPKLLIYYTSRLQSGVPSRFSGSGSGTDFTLTISSLQPEDFATYFCQQGNTWPPTFGQGTKLEIKR
B3: AB270 (antibody, V domains shown)
VH: EVQLQESGPGLVKPSETLSLTCTVSGFSLSDYGVSWIRQPPGKGLEWLGLIWGGGDTYYNSPLKSRLTISKDNSKSQVSLKLSSVTAADTAVYYCAKQRTLWGYDLYGMDYWGQGTLVTVSS
VL: DTQVTQSPSSLSASVGDRVTITCITSTDIDVDMNWYQQKPGKPPKLLISQGNTLRPGVPSRFSSSGSGTDFTFTISSLQPEDFATYYCLQSDNLPLTFGQGTKLEIK
notes: Benchmark anti-IL-1B mAb; also called 1B12.1; 1B12-1
B4: CODH1 (bispecific antibody)
chain 1: EVQLQESGPGLVKPSETLSLTCTVSGFSLSDYGVSWIRQPPGKGLEWLGLIWGGGDTYYNSPLKSRLTISKDNSKSQVSLKLSSVTAADTAVYYCAKQRTLWGYDLYGMDYWGQGTLVTVSSGEVQLVQSGAEVKKPGESVKISCKASGGSFRSYGISWVRQAPGQGLEWMGGITHFFGITDYAQKFQGRVTITADESTTTAYMELSGLTSDDTAVYYCAREPNDFWGGYYDTHDFDSWGQGTTVTVSSGG
chain 2: EIVLTQSPDFQSVTPKEKVTITCRASQNIGSELHWYQQKPDQSPKLLIKYASHSISGVPSRFSGSGSGTDFTLTINGLEAEDAATYYCHQSDTLPHTFGQGTKVDIKGGGGGGGDTQVTQSPSSLSASVGDRVTITCITSTDIDVDMNWYQQKPGKPPKLLISQGNTLRPGVPSRFSSSGSGTDFTFTISSLQPEDFATYYCLQSDNLPLTFGQGTKLEIKGGGGGR
B5: CODH12 (bispecific antibody)
chain 1: EVQLVESGGGVVQPGRSLRLSCSASGFIFSRYDMSWVRQAPGKGLEWVAYISHGGAGTYYPDSVKGRFTISRDNSKNTLFLQMDSLRPEDTGVYFCARGGVTKGYFDVWGQGTPVTVSSGGGGSGGGEIVLTQSPDFQSVTPKEKVTITCRASQNIGSELHWYQQKPDQSPKLLIKYASHSISGVPSRFSGSGSGTDFTLTINGLEAEDAATYYCHQSDTLPHTFGQGTKVDIKGGSGG
chain 2: EVQLVQSGAEVKKPGESVKISCKASGGSFRSYGISWVRQAPGQGLEWMGGITHFFGITDYAQKFQGRVTITADESTTTAYMELSGLTSDDTAVYYCAREPNDFWGGYYDTHDFDSWGQGTTVTVSSGGGGSGGGDIQMTQSPSSLSASVGDRVTITCRASGNIHNYLTWYQQTPGKAPKLLIYNAKTLADGVPSRFSGSGSGTDYTFTISSLQPEDIATYYCQHFWSIPYTFGQGTKLQITGGGR
B6: CODH15 (bispecific antibody)
chain 1: EIVLTQSPDFQSVTPKEKVTITCRASQNIGSELHWYQQKPDQSPKLLIKYASHSISGVPSRFSGSGSGTDFTLTINGLEAEDAATYYCHQSDTLPHTFGQGTKVDIKGGGGGGGDIQMTQSPSSLSASVGDRVTITCRASGNIHNYLTWYQQTPGKAPKLLIYNAKTLADGVPSRFSGSGSGTDYTFTISSLQPEDIATYYCQHFWSIPYTFGQGTKLQITGGGGG
chain 2: EVQLVESGGGVVQPGRSLRLSCSASGFIFSRYDMSWVRQAPGKGLEWVAYISHGGAGTYYPDSVKGRFTISRDNSKNTLFLQMDSLRPEDTGVYFCARGGVTKGYFDVWGQGTPVTVSSGEVQLVQSGAEVKKPGESVKISCKASGGSFRSYGISWVRQAPGQGLEWMGGITHFFGITDYAQKFQGRVTITADESTTTAYMELSGLTSDDTAVYYCAREPNDFWGGYYDTHDFDSWGQGTTVTVSSGGR
B7: CODH2 (bispecific antibody)
chain 1: EVQLVQSGAEVKKPGESVKISCKASGGSFRSYGISWVRQAPGQGLEWMGGITHFFGITDYAQKFQGRVTITADESTTTAYMELSGLTSDDTAVYYCAREPNDFWGGYYDTHDFDSWGQGTTVTVSSGEVQLQESGPGLVKPSETLSLTCTVSGFSLSDYGVSWIRQPPGKGLEWLGLIWGGGDTYYNSPLKSRLTISKDNSKSQVSLKLSSVTAADTAVYYCAKQRTLWGYDLYGMDYWGQGTLVTVSSGG
chain 2: DTQVTQSPSSLSASVGDRVTITCITSTDIDVDMNWYQQKPGKPPKLLISQGNTLRPGVPSRFSSSGSGTDFTFTISSLQPEDFATYYCLQSDNLPLTFGQGTKLEIKGGGGGGGEIVLTQSPDFQSVTPKEKVTITCRASQNIGSELHWYQQKPDQSPKLLIKYASHSISGVPSRFSGSGSGTDFTLTINGLEAEDAATYYCHQSDTLPHTFGQGTKVDIKGGGGGR
B8: CODH4 (bispecific antibody)
chain 1: EVQLVQSGAEVKKPGESVKISCKASGGSFRSYGISWVRQAPGQGLEWMGGITHFFGITDYAQKFQGRVTITADESTTTAYMELSGLTSDDTAVYYCAREPNDFWGGYYDTHDFDSWGQGTTVTVSSGEVQLVESGGGVVQPGRSLRLSCSASGFIFSRYDMSWVRQAPGKGLEWVAYISHGGAGTYYPDSVKGRFTISRDNSKNTLFLQMDSLRPEDTGVYFCARGGVTKGYFDVWGQGTPVTVSSGG
chain 2: DIQMTQSPSSLSASVGDRVTITCRASGNIHNYLTWYQQTPGKAPKLLIYNAKTLADGVPSRFSGSGSGTDYTFTISSLQPEDIATYYCQHFWSIPYTFGQGTKLQITGGGGGGGEIVLTQSPDFQSVTPKEKVTITCRASQNIGSELHWYQQKPDQSPKLLIKYASHSISGVPSRFSGSGSGTDFTLTINGLEAEDAATYYCHQSDTLPHTFGQGTKVDIKGGGGGR
B9: CODH3 (bispecific antibody)
chain 1: EVQLVESGGGVVQPGRSLRLSCSASGFIFSRYDMSWVRQAPGKGLEWVAYISHGGAGTYYPDSVKGRFTISRDNSKNTLFLQMDSLRPEDTGVYFCARGGVTKGYFDVWGQGTPVTVSSGEVQLVQSGAEVKKPGESVKISCKASGGSFRSYGISWVRQAPGQGLEWMGGITHFFGITDYAQKFQGRVTITADESTTTAYMELSGLTSDDTAVYYCAREPNDFWGGYYDTHDFDSWGQGTTVTVSSGG
chain 2: EIVLTQSPDFQSVTPKEKVTITCRASQNIGSELHWYQQKPDQSPKLLIKYASHSISGVPSRFSGSGSGTDFTLTINGLEAEDAATYYCHQSDTLPHTFGQGTKVDIKGGGGGGGDIQMTQSPSSLSASVGDRVTITCRASGNIHNYLTWYQQTPGKAPKLLIYNAKTLADGVPSRFSGSGSGTDYTFTISSLQPEDIATYYCQHFWSIPYTFGQGTKLQITGGGGGR
B10: AB461 (antibody, V domains shown)
VH: EVQLVQSGAEVKKPGESVKISCKASGGSFRSYGISWVRQAPGQGLEWMGGITHFFGITDYAQKFQGRVTITADESTTTAYMELSGLTSDDTAVYYCAREPNDFWGGYYDTHDFDSWGQGTTVTVSS
VL: EIVLTQSPDFQSVTPKEKVTITCRASQNIGSELHWYQQKPDQSPKLLIKYASHSISGVPSRFSGSGSGTDFTLTINGLEAEDAATYYCHQSDTLPHTFGQGTKVDIK
notes: Benchmark anti-IL-17 mAb; also called B6-5G

target: T1, IL-17 (UniProt Q16552 24-155); assay: ELISA
T1 sequence (Q16552 24-155 limits assumed): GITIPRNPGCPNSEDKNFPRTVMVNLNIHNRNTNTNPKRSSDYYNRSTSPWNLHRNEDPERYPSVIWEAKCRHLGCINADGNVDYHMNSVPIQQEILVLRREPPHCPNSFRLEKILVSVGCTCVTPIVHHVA

| Binder | EC50 |
| --- | --- |
| B1 | 0.203 nM |

target: T2, TNF (UniProt P01375 77-233); assay: ELISA
T2 sequence (P01375 77-233 limits assumed): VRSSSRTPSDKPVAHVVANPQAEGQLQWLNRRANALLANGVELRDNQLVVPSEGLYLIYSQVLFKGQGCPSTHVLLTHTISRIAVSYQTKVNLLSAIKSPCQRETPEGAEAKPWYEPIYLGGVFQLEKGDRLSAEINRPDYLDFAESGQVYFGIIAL

| Binder | EC50 |
| --- | --- |
| B2 | 0.398 nM |

target: T3, IL-1B (UniProt P01584 117-269); assay: SPR (Biacore)

| Binder | Kd |
| --- | --- |
| B3 | 0.089 nM |
| B4 | 0.19 nM |
| B5 | 800 nM |
| B6 | 390 nM |
| B7 | 0.17 nM |
| B8 | 0.11 nM |
| B9 | 0.13 nM |

target: T1, IL-17; assay: SPR (Biacore)

| Binder | Kd |
| --- | --- |
| B4 | < 0.0001 nM |
| B10 | 0.0009 nM |
| B7 | 0.0004 nM |
| B9 | < 0.0002 nM |

target: T3, IL-1B; assay: cell-based or functional assay

| Binder | IL-1B neutralization IC50 (pM) |
| --- | --- |
| B3 | 245 pM |
| B4 | 1300 pM |
| B5 | 2040 pM |
| B6 | 1660 pM |
| B7 | 1600 pM |
| B8 | 113 pM |
| B9 | 1160 pM |

target: T1, IL-17; assay: cell-based or functional assay

| Binder | IL-17 neutralization IC50 (pM) |
| --- | --- |
| B4 | 30 pM |
| B5 | 220 pM |
| B6 | 7.4 pM |
| B10 | 2 pM |
| B7 | 29 pM |
| B8 | 4 pM |
| B9 | 12 pM |

target: T1, IL-17; assay: cell-based or functional assay; remark: another data set of the same source

| Binder | Neutralization IC50 (pM), IL-17 |
| --- | --- |
| B1 | 10 pM |

target: T2, TNF; assay: cell-based or functional assay

| Binder | Neutralization IC50 (pM), TNF |
| --- | --- |
| B2 | 6 pM |
